Laboratory results as given in publication PMC11376383, “Transcription factor ZmEREB97 regulates nitrate uptake in maize (Zea mays) roots”.

Experiments:
[1] = target: T1, ZmEREB97 (Zea mays (B73_v3 gene model; cDNA …, UniProt C4J4G2 1-222); experiment: EMSA; partially competed by 50-fold cold probe; EMSA/Gel Shift Binding Buffer (Beyotime; composition, salt and pH not stated), 25 C, 20 min, about 80 ng protein, 2.5 ng probe; conditions: protein: recombinant; tags: 6xHis (pCold); label: 5'-biotin
[2] = target: T1, ZmEREB97; experiment: EMSA; EMSA/Gel Shift Binding Buffer (Beyotime; composition, salt and pH not stated), 25 C, 20 min, about 80 ng protein, 2.5 ng probe; conditions: protein: recombinant; tags: 6xHis (pCold); label: 5'-biotin

T1 sequence (C4J4G2 entry or part of it): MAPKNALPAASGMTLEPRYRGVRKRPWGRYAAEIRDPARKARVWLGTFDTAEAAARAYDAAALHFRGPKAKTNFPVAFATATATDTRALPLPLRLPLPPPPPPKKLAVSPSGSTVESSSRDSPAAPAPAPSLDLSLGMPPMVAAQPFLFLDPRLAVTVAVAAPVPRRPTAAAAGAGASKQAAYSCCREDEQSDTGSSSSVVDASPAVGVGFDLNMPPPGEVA

B1: ZmNRT2.1 promoter probe (dsDNA)
DNA 1: CCAGCAGCAGCAGCCGACTAAACGGCATAGA
DNA 2: TCTATGCCGTTTAGTCGGCTGCTGCTGCTGG
binding result [1]: binds

B2: ZmNRT3.1A promoter probe (dsDNA)
DNA 1: CACCAGCACCGGCGCCGCCATTCGCCCCCTG
DNA 2: CAGGGGGCGAATGGCGGCGCCGGTGCTGGTG
binding result [1]: binds

B3: Motif 1 probe (WT) (dsDNA)
DNA 1: CTCGGTCCACGCCGCCCGTCGGGGTTCG
DNA 2: CGAACCCCGACGGGCGGCGTGGACCGAG
binding result [2]: binds

B4: ZmNRT1.2 promoter probe (dsDNA)
DNA 1: CCACCGCACTGTCGCCGCCGTGCAGGCTCCA
DNA 2: TGGAGCCTGCACGGCGGCGACAGTGCGGTGG
binding result [1]: binds

B5: ZmNRT1.1B promoter probe (dsDNA)
DNA 1: AACAGGAGCACCCGCCGCCATGCTGCTCGCT
DNA 2: AGCGAGCAGCATGGCGGCGGGTGCTCCTGTT
binding result [1]: binds

B6: ZmNRT2.5 promoter probe (dsDNA)
DNA 1: GCCGCGCCCGCTGCCGCCTCCCAGCTCGCT
DNA 2: AGCGAGCTGGGAGGCGGCAGCGGGCGCGGC
binding result [1]: binds

B7: ZmNRT1.1A promoter probe (dsDNA)
DNA 1: ATATATAGCGGGGCGCCGCCCACCCGGCGGAGC
DNA 2: GCTCCGCCGGGTGGGCGGCGCCCCGCTATATAT
binding result [1]: binds
